Data taken from a protein production outcome set (Wang et al. 2014).

Experiment: label from the status in PepcDB records
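Also: failed if final PepcDB status was selected cloned or expressed and not failed if soluble or beyond.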

| Sequence | protein production |
| --- | --- |
| METRANYVIVGIFTLVAILAAFGFVYWTAAIGDRGETTLLRVRIPGSASGLGRGSFVLFNGVKVGDVKRVYIDVDNPTVAIADTEIDRLTPITKSTQADIGLAGLTGQANIELKGADPKEVKLLDQAEKEGKVAEIVANPSAVTNLLQTAQNIFSRADKVLSELEGFTRDVRGPLTQTVQNVQTFSDALAKNSDGIDKFLSSVSALSEELKGVSGKLDGTLKAAEGLLNAVDRDKIKSIVANVDTVTANLKQTSQQLDGVIKNVDTAVGSVNDFAKQTQGTLAKVDGVLDGVDPAQVRAALANIQKASENANKAAADIAVVTEKFANRADDIDQTIKDAKQLAQRLNDASVRVDGILARVDTLLGSGQADGLMADARDTLKSFKQVADTLNARLGVITDNLARFSGQGLSNVEALVQDSRRSITRIEEAVTDLSRNPQRILSGGDGEVRQFDGRARR | failed |
| METRYNLKSPAVKRLMKEAAELKDPTDHYHAQPLEDNLFEWHFTVRGPPDSDFDGGVYHGRIVLPPEYPMKPPSIILLTANGRFEVGKKICLSISGHHPETWQPSWSIRTALLAIIGFMPTKGEGAIGSLDYTPEERRALAKKSQDFCCEGCGSAMKDVLLPLKSGSDSSQADQEAKELARQISFKAEVNSSGKTISESDLNHSFSLTDLQDDIPTTFQGATASTSYGLQNSSAASFHQPTQPVAKNTSMSPRQRRAQQQSQRRLSTSPDVIQGHQPRDNHTDHGGSAVLIVILTLALAALIFRRIYLANEYIFDFEL | failed |
| METSSSSPVKPRRKDKDEDKFRIGATLAFIVVIIGIGVPMWWRTTTVYRVNLPSTEILSLSKIPIKTAVQVAIYTQQTSRGQLLIAELQNAFSDNEIWSVEFKQLSPTPMTQEAHTPAALEKLLLENHVQSVGDFMFIEWPKLQEELLLTTERSALMRSDTPSNKIAQLLHAKILQTYRINQILSTDERMGAKSEAPQPAYDVIVSVLNPKPRLTHAKWNIAMAVKTYIEPWLAKVSGVSNYTVRSQWKYRVAIEADLKQVRDQSKLGRHYALQETALPHLLTSIAQNLSASTTDKPAINLVVYIPPCHIAPLHIYNSKDQRLTRNDVDAFISPPWGGFIIANPPEHVCLAAMSDQEAVPYHVSTTDNMQVMLDQLHKLLDISSELQMEGVKVVDIEQLEPRRWEYEAYLRRSAIRHISTASSTLQSLIKLLDQISYIVIDDEVGAAITNSYADILAAKAALLEHRLADASVLAKRAFVASERGFFDASLLAQLYFPDEQKYAIYIPLFLPIMVPVLSSFNMLRGVLQARRKEKQS | failed |
| METYLEIETLIKRIFNSFRHEVEAVLDKRLSGSEYRVLSLISSGLTKTSDLAKTLDVSASHITAITDTLVEEKLITRHRSEVDRRIIELKLTSNAEEFVKEIDKKKKEMIVKRFAVFSEYEQAEFRKLLKKLADGSQSNK | failed |
| MEVDTMETLIRLFVSILIICVLALMIKKSRCLDNEGVIGSSIMGFILLYFCGFKYLILLLSFFILGVLVSRVGLEKKKAKKMDETCRSLKNVLANGLIPILFAILAIFGFNWALIGYISSIAAATSDTFSSELGILSNEKPRLITTFEVVEKGTDGAITIFGTLAGVLGAFLIGLFGYLLFGDIKIVLCGTAGGIAGNLADSLVGALFERKGILNNEHVNLIATIVGGIIGVLIYCTL | failed |
| MEVERKIVSLEALYIVYDADGTVAGELLYLLRKWLGKGHCAACDITHGPRKVKPEWTILQKTGWLGVPLFNIHRDEMEPKLRSAVSCALPCVAALVDNGDYVLLLQPEDLESCKGQVSKLQEKIVEALKDFGFQVNESFTSVVTSDLSDTCPSTLDREKEEDDAVVPF | failed |
| MEVLKDFLLFYGGLFAITNPIGAVPVFIAVTRNLSPEKRKEIARKTSTTVMVTLLVFALVGEWIFKFFGASTDAFSIAGGIILFRMSLEMLSGKLSSVKISEEEEHISEEAVTLEEVAIIPLAIPLLSGPGAITTTMLYMAKSSTMIEKSIVLLVVVAIGITVWIILSAANRIHQKLGTIGIKVMTRMMGLILASMAVQMVINGVKGAFNI | failed |
| MEVLLDVKERMSILKNFYDEVRVVDPINNIVFSDDFNLKINNKFNEKDCSLSNCYDVWGKKSMCSTCISKKAYLKNDTFIKLEYNKNHVFLVIASPIEFNENKYVVEILKDITNNGSIVDGSGEGNYLDLTMKKMGENLIKDYLTGVYNKRYIDQRFSKEAHRNLKESIPTTVIMTDIDSFKKVNDTYGHLVGDKILRDFAKVLNNNIRENSDWIGRYGGEEFIIVLNNTNLKNGVKVAEKLRKIIEKMSFDYGDLSLKITSSFGVCEVSEKEDPFDTIKNADEKLYMAKMTGRNKTVF | failed |
| MEVMRGVRVIEGMNGGRFPYCNVVVVGDVVIDAGAGLEVMRKVNASLLVLSHLHPDHSSGAWLFKDVLAPAEGRITLDTLARRFVAPDLVESWKRFISAATGLREFECERYEEGVVVKEPEIVAVPVKGHTMDHHVFLIEQKVLFGADVDLTSFGPFYGNPEADPYLFEREMDKLLDIDFEIFVSAHSKPLEHHHHHH | failed |
| MEVRWCATSDPEQHKCGNMSEAFREAGIQPSLLCVRGTSADHCVQLIAAQEADAITLDGGAIYEAGKEHGLKPVVGEVYDQEVGTSYYAVAVVRRSSHVTIDTLKGVKSCHTGINRTVGWNVPVGYLVESGRLSVMGCDVLKAVSDYFGGSCVPGAGETSYSESLCRLCRGDSSGEGVCDKSPLERYYDYSGAFRCLAEGAGDVAFVKHSTVLENTDGKTLPSWGQALLSQDFELLCRDGSRADVTEWRQCHLARVPAHAVVVRADTDGGLIFRLLNEGQRLFSHEGSSFQMFSSEAYGQKDLLFKDSTSELVPIATQTYEAWLGHEYLHAMKGLLCDPNRLPPYLRWCVLSTPEIQKCGDMAVAFRRQRLKPEIQCVSAKSPQHCMERIQAEQVDAVTLSGEDIYTAGKKYGLVPAAGEHYAPEDSSNSYYVVAVVRRDSSHAFTLDELRGKRSCHAGFGSPAGWDVPVGALIQRGFIRPKDCDVLTAVSEFFNASCVPVNNPKNYPSSLCALCVGDEQGRNKCVGNSQERYYGYRGAFRCLVENAGDVAFVRHTTVFDNTNGHNSEPWAAELRSEDYELLCPNGARAEVSQFAACNLAQIPPHAVMVRPDTNIFTVYGLLDKAQDLFGDDHNKNGFKMFDSSNYHGQDLLFKDATVRAVPVGEKTTYRGWLGLDYVAALEGMSSQQC | failed |
| MEVSENATTRGSLALVSIILPVHNAEQWLDECLMSVLQQDFEGAMELSVFNDASKDKSRAIIEKWKVKLEDSGISVVIGGHDSPSPRGVGYSKNQAVAQSTGSYLCFLDSDDVMMPQRVRMQYEAAGQHPTSIIGCQVRRDPPDSTERYTRWINHLTSDQLLTQVFTSHGPTVIMPTWFCSRAWFSHVGPFDEGGQGVPEDLLFFYEHLRKGGGVFRVDHSLLLYRYHLYAATHSVLEMTIWTHRVHFLEEQVLPHWKSFTIWNAGKQGRKLYRSLTAASRHKVVAFSDVDENKIRKGFYCYEDSQERPKPKVPILHFQAAQSPFVICVKLDLTGGEFEDNLKSLDLQEGRDFVHFS | failed |
| MEVSERIIIGNKISKITIIANIALSILKILAGVFGKSSALIADGMHSFSDILSTVVVMLGLKLSEKPADESHPYGHERIEPALTKILAVILLVTALMIFYCGLTTIIGGNYQIPGNITIIAALISIFTKEWMYKYTKKGAEQIESSALLADAWHHRSDAFSSVGTLIGVVGAKLGYPILDPIASIVISLFIAKMAFEIYFKALNQLLDRAADSKTIEEIKKIILSVDGVLEIDVLKTRIHSNKIYVDVEISVDKDLSLIEAHNISENVHSQIESKLKRVKHCMVHVNPYLK | failed |
| MEVTNGLNLKDTELRLGLPGAQEEQQLELSCVRSNNKRKNNDSTEESAPPPAKTQIVGWPPVRSNRKNNNNKNVSYVKVSMDGAPYLRKIDLKMYKNYPELLKALENMFKFTVGEYSEREGYKGSGFVPTYEDKDGDWMLVGDVPWDMFSSSCQKLRIMKGSEAPTAL | not failed |
| MEWEIVNLDMTFKVDAPVEEVFRAWTKPSLFKQWFMTTEETNKVAKNQFEINGDWEIIDVREGVEYRAIGTYIDIVSPYKLTFSFKMPQFSELEDIITVEFVDLTGATEVKFNQGIKVPFEGDTNDFEADKTEVKKEMETGYNLMFERLKQLCEG | failed |
| MEWSLPVDLQEEILSRVPAKSLARWKSTPKQWKGPISIEFLHLLRSTLKFPLLNLHLKSKSIYVTSFTAMVFCYAPPSTKDSRFGIHVQGKPSGFLADEQNKVVVCCKWRSDSINTIYFVGENKHVQVDQRRGDLTLGQSCSFLMNYVPSFVQIQQGTLLAPRT | failed |
| MEYTVHTPSFRYHDLPYQDCLNKVGTVTLQDYRDDLVALIESLNQPPLLLGHSLGFLVAQMAAKKIEIDGMIFM | failed |
| MEYYFTAQKLAVGYDNRPLIENIDFSLKRGEILTLIGPNGAGKSTILKSIARQLSLVSGTIYLDKSDVVTMNGNEFAKKMAVVLTDKLKTELMTCYDVVATGRYPYTGRFGVLSDEDKKAVDEAMELVNVSQIKDKDFTKISDGQRQRVMLSRAICQQPEIIVLDEPTSYLDIKYKLEFLSILQRLKRQKNLTVIMSLHELDMAKRVSDHILCIDGRYVDRYGTPEEVFTDQYVSGLFGITAGSFDETGEDLELEKPDGSARIFVIAGGGLGRKSFRSLQRKGIPFATGIIYENDLDYPAAKALSAEIVSARSFEPVDDALIEKAKELIDACEGVICDRTEFGTYEQFNSRLYEYAVSTGKIIKIPFLEEQLAQL | failed |
| MFAGSIPMYIRVVSITAQSKLQFDMTVTYFENVWSPKVISLGAISAEFVQSNENSGMYIIHYPDKQTAISVFDKIKPEVDEVRTQNRIQITEGKRLFRVD | not failed |
| MFAMLHVIVDTNWLLLAFSALMFDLPRYTFSLLSWSLVGIFRNSRPGDRWVEAAVSVIIPTFNGGSGLAPTIASLRQQTLSPLEIIIVDDGSTDDTRAVANRARQDGLVDMVICHGTRCGRSAAINAAARFASGDLIFTIDADTVLERDAIARLAHAFNDPRVAGACGNIAIRNESASLWTGLQSVEYMMSISAGKSILDVVGAIACLSGACSMYRRDVFARQGGLDVGPGEDLEFSLRLRRLGYRVRFVPDAWAETDGPVAAVGLLRQRARWDRDALRIRSMMYGELSFFHPLERLPDTLQRLDFIVFDLIPTMSLPFYSMYIVILFGPAHAILFIGAIYFLLLWISLFNMALAFVLFSRSPSFFSLGAAFIFPFYQGIYMKCARFVSYSSEILFATSRRDDYVPPRVRRALFADEVGKVVS | failed |
| MFAYTLTTLTLCCTSILITSYISKRKGTLMEYMVFIMSFSMSIGLSIGFYLGILFKGELLYSTLLAILISGFIGFLIGLRFHLYTALEGMFSGLMASMMGAMITEMLNAQQAHSILFISLLLTITITMSCVIQLLSENFSTFIQQRFLLLLSISVVIIVAVFTTFPDHTPAPSPGHNQHIH | failed |
| MFDIGVNLTSSQFAKDRDDVVACAFDAGVNGLLITGTNLRESQQAQKLARQYSSCWSTAGVHPHDSSQWQAATEEAIIELAAQPEVVAIGECGLDFNRNFSTPEEQERAFVAQLRIAADLNMPVFMHCRDAHERFMTLLEPWLDKLPGAVLHCFTGTREEMQACVAHGIYIGITGWVCDERRGLELRELLPLIPAEKLLIETDAPYLLPRDLTPKPSSRRNEPAHLPHILQRIAHWRGEDAAWLAATTDANVKTLFGIAF | not failed |
